Data on one molecule can be found in patent US20180057596A1 (AstraZeneca / MedImmune, published 2018).

The target in experiment [1] is T1, human IL-4Rα HIS FLAG (in house HEK-EBNA derived) (human, biotinylated where used as the labelled partner in the DELFIA assay).
T1 construct: also called HuIL-4Rα; Human IL4-Rα/FLAG/HIS tag
T1 chain: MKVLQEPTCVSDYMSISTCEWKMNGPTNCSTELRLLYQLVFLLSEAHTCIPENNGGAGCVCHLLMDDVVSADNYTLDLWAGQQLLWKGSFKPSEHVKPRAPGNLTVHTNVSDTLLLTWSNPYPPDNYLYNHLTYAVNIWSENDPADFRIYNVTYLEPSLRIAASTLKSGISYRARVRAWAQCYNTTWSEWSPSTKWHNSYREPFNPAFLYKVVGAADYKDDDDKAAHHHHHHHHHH
The experiment can be described thus: SPR (BIAcore 2000), IgG captured on Protein G', receptor as analyte, 1:1 Langmuir. On the procedure:
(§1) In brief, Protein G′ (Sigma Aldrich, P4689) was covalently coupled to the surface of a CM5 sensor chip using standard amine coupling reagents according to manufacturer's instructions (BIAcore). This Protein G′ surface was used to capture a constant amount of purified anti-IL4R• antibodies or isotype control via the Fc domain. Human or cynomolgus IL-4R• HIS FLAG prepared in HBS-EP buffer (BIAcore AB), at a range of concentrations, between 100 nM and 0.2 nM, were passed over the sensor chip surface. […] The resulting sensorgrams were evaluated using BIA evaluation 4.1 software and fitted to 1:1 Langmuir binding model, to provide the relative binding data. The experiments were performed over the course of at least three separate days to calculate an average monovalent affinity.
Background: Surface plasmon resonance follows binding to a sensor surface in real time, without labels.

The target in experiment [2] is T2, cynomolgus IL-4Rα HIS FLAG (cynomolgus).
T2 construct: also called Cyno IL4Rα HIS FLAG; not shown: HIS and FLAG tags and any vector-encoded linker of the cynomolgus HIS FLAG construct
T2 chain: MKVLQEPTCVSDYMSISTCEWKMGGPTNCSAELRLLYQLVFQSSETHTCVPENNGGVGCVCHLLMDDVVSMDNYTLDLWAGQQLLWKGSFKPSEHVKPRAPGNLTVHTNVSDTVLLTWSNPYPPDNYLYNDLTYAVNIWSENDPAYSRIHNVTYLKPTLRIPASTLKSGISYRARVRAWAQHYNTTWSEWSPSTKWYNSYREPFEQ
The description is as above. On the procedure:
as §1

The target in experiment [3] is T3, Human common gamma chain (sIL-2Rγ) (R & D Systems 384-RG-050-CF) (human, UniProt P31785 23-254).
T3 construct: bought protein; also called common gamma chain (IL-2Rγ)
T3 sequence (looked up): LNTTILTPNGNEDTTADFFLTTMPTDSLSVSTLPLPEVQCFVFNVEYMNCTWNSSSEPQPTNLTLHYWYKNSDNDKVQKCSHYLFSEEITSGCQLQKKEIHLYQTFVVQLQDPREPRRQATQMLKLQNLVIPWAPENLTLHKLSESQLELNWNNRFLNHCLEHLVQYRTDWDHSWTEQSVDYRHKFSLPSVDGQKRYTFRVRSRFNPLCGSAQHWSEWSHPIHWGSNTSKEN
The experiment can be described thus: DELFIA epitope competition, no inhibition of biotinylated human IL-4Rα HIS FLAG binding to immobilised IgG. On the procedure:
(§2) Titrations of IL-4R• species including cynomolgus IL-4R• HIS Fc (in house HEK-EBNA derived), human IL-4R• 175V Fc (AstraZeneca), human IL-4R• Fc and murine IL-4R• (both R & D Systems) were tested in each assay to establish the species cross-reactivity of the antibodies. Unbiotinylated human IL-4R• HIS FLAG was used as a positive control. Human and cynomolgus IL-4R• HIS Fc, along with Human IL-4R• 175V Fc, produced overlapping inhibition curves with […] IC₅₀ values. […] Details of the protocol are provided in the Materials and Methods section 4.6.1.
(§3) Purified IgG were adsorbed onto 96-well Maxisorp microtitre plates (Nunc) in PBS at a concentration which gave a significant signal when biotinylated human IL-4R• HIS FLAG was added at approximately its estimated KD for that particular IgG. Excess IgG was washed away with PBS-Tween (0. 1% v/v) and the wells were blocked with PBS-Marvel (3% w/v) for 1 h. […] Unbiotinylated human IL-4R• HIS FLAG was used as a positive control. […] These mixtures were then transferred onto the blocked IgG and allowed to equilibrate for 1.5 h. Unbound antigen was removed by washing with PBS-Tween (0.1% v/v), while the remaining biotinylated human IL-4R• was detected by streptavidin-Europium3+ conjugate (DELFIA• detection, PerkinElmer).

The target in experiment [4] is T4, human IL-13Rα2 Fc (R & D Systems, 614-IR-100) (human, UniProt Q14627 27-343, limits assumed).
T4 construct: bought protein; not shown: Fc part of the bought fusion
T4 sequence (looked up): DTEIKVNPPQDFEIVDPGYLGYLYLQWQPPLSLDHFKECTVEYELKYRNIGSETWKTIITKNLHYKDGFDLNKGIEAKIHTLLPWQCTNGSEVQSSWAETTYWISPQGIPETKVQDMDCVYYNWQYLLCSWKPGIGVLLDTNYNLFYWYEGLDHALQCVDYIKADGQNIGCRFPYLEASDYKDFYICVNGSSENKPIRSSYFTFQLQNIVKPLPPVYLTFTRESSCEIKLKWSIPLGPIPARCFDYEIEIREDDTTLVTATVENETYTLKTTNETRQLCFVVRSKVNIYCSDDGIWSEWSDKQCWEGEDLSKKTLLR
Described as above. On the procedure:
as §2, §3

The target in experiment [5] is T5, human IL-13Rα1 Fc (R & D Systems, 146-IR-100) (human, UniProt P78552 27-343, limits assumed).
T5 construct: bought protein; not shown: Fc part of the bought fusion
T5 sequence (looked up): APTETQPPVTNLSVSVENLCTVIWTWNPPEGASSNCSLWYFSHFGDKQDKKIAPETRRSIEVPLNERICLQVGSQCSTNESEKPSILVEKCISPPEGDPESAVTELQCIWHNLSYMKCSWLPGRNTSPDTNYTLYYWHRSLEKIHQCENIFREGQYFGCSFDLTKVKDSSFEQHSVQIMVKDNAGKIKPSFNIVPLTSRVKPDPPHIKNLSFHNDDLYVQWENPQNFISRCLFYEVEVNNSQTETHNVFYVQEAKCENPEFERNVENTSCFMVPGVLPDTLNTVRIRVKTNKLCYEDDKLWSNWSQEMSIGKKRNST
The experiment is described as above. On the procedure: as §2, §3

The target of experiment [6] is T6, murine IL4Rα Fc (R & D Systems 530-MR-100) (murine, UniProt P16382 26-233, limits assumed).
T6 construct: bought protein; not shown: Fc part of the bought fusion
T6 sequence (looked up): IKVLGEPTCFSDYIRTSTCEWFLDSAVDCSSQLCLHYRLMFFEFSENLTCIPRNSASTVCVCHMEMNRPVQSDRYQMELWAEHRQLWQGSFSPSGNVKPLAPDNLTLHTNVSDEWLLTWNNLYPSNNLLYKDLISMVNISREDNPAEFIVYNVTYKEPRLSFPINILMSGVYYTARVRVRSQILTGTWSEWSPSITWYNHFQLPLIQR
The experiment is described as above. On the procedure:
as §2, §3

Experiment [7] concerns the target T1, human IL-4Rα HIS FLAG (in house …). The experiment can be described thus: SPR (BIAcore 2000), value in parentheses under the mean, taken as a single determination. On the procedure: as §1
Experiment [8] deals with T2, cynomolgus IL-4Rα HIS FLAG. Described as above. On the procedure:
as §1

Several values for one entry are separate records, joined by “and”; a condition that tells them apart may be missing. Identical values can stand only once.

B1: Antibody 37GL IgG (antibody, V domains shown)
VH: QVQLVQSGAEVKKPGASVKVSCKASGYAFTSYYMHWVRQAPGQGLEWMGIINPRGGSTSYAQKFQGRVTMTRDTSTSTVYMELSSLRSEDTAVYYCARGKYWMYDWGKGTLVTVSS
VL: QSVLTQPPSVSAAPGQKVTISCSGGGSSIGNSYVSWYQQLPGTAPKLLIYDNNKRPSGIPDRFSGSKSGTSATLGITGLQTGDEADYYCGTWDTSPVWEWPFGTGTKLTVL
notes: germlined IgG; also called Antibody 37 (FGL)
One may read the Kd as the constant that tells how readily two partners part at equilibrium. By koff is commonly meant the first-order rate constant of dissociation. Lower therefore signals a long-lived complex. For orientation: kon means a measure of how fast the partners come together. Low readings indicate slow association, high ones fast association. For B1, the Kd is 0.504 nM in experiment [1]; 4.41 nM in experiment [2]; 0.533 nM and 0.531 nM and 0.459 nM in experiment [7]; 4.67 nM and 4.34 nM and 4.41 nM in experiment [8]. The koff in experiment [1] turned out to be 0.000346 s⁻¹; in experiment [2], 0.00108 s⁻¹. In addition, the kon in experiment [1] is 688000 M⁻¹ s⁻¹; in experiment [2] it was 244000 M⁻¹ s⁻¹. In addition, the binding result in experiment [3], in experiment [4], in experiment [5] and in experiment [6] was “no binding” in each case.
